Sequences and labels used below:
B1: h32716-4-2 IgM (CD123xCD3 IgM antibody) (bispecific antibody)
VH: QVQLVQSGPELKKPGASVKVSCKASGYIFTNYGMNWVRQAPGQGLEWMGWINTYTGESTYSADFKGRFVFSLDTSVSTAYLQISSLKAEDTAVYYCARSGGYDPMDYWGQGTLVTVSS
VL: DIQMTQSPSSLSASVGDRVTITCRASESVDNYGNTFMHWYQQKPGKAPKLLIYRASNLESGVPSRFSGSGSGTDFTFTISSLQPEDIATYYCQQSNEDPPTFGQGTKVEIK
chain: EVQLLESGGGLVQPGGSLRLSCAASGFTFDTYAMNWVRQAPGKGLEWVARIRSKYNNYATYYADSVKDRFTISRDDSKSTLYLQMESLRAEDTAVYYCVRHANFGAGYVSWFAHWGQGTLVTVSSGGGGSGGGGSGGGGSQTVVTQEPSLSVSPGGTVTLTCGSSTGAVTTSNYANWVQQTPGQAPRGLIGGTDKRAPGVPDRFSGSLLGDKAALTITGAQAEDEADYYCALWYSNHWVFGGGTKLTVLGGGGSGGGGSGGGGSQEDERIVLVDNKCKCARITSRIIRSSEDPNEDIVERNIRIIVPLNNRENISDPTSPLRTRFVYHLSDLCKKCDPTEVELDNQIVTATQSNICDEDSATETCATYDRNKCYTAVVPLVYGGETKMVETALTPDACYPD
notes: Pentameric IgM with modified J-chain
B2: 32716 IgM (CD123xCD3 IgM antibody) (bispecific antibody)
VH: QIQLVQSGPELKKPGETVKISCKASGYIFTNYGMNWVKQAPGKSFKWMGWINTYTGESTYSADFKGRFAFSLETSASTAYLHINDLKNEDTATYFCARSGGYDPMDYWGQGTSVTVSS
VL: DIVLTQSPASLAVSLGQRATISCRASESVDNYGNTFMHWYQQKPGQPPKLLIYRASNLESGIPARFSGSGSRTDFTLTINPVEADDVATYYCQQSNEDPPTFGAGTKLELK
J-chain: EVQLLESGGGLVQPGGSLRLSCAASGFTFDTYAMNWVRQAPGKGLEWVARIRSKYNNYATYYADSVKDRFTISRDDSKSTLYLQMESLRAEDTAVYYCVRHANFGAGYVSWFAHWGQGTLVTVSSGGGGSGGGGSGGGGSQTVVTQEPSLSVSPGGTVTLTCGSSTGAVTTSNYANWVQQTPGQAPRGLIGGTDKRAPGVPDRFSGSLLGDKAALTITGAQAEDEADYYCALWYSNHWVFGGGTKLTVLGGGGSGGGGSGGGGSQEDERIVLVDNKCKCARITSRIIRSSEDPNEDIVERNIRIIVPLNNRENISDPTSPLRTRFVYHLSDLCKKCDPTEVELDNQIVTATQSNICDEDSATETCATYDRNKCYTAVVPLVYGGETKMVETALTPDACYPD
notes: Pentameric IgM with J-chain; also called original mouse antibody
B3: h32716-1-1 IgM (CD123xCD3 IgM antibody) (bispecific antibody)
VH: QVQLVQSGAEVKKPGSSVKVSCKASGYIFTNYGMNWVRQAPGQGLEWMGWINTYTGESTYSADFKGRVTITADESTSTAYMELSSLRSEDTAVYYCARSGGYDPMDYWGQGTLVTVSS
VL: DIVMTQSPDSLAVSLGERATINCRASESVDNYGNTFMHWYQQKPGQPPKLLIYRASNLESGVPDRFSGSGSGTDFTLTISSLQAEDVAVYYCQQSNEDPPTFGQGTRLEIK
chain: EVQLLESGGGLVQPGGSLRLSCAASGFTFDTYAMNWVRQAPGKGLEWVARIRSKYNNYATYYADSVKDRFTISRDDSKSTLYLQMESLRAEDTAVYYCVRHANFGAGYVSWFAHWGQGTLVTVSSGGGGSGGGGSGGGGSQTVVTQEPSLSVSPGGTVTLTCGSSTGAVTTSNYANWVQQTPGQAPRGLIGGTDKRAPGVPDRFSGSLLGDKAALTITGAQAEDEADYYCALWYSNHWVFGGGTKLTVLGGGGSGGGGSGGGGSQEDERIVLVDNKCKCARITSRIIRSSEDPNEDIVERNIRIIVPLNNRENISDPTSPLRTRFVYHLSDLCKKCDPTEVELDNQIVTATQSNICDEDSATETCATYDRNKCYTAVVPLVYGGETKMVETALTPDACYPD
notes: as for B1
B4: h32716-5-2 IgG (antibody, V domains shown)
VH: B1 VH with R38K
VL: B1 VL
notes: Human IgG format
B5: h32716-4-2 IgG (antibody, V domains shown)
VH: B1 VH
VL: B1 VL
notes: Human IgG format
B6: h32716-6-2 IgG (antibody, V domains shown)
VH: B1 VH with R38K, L45F, E46K
VL: B1 VL
notes: Human IgG format
B7: 32716 IgG (antibody, V domains shown)
VH: B2 VH
VL: B2 VL
notes: Parental mouse variable domains cloned into human IgG format; detected with anti-human kappa; also called original mouse antibody
B8: h32716-2-1 IgG (antibody, V domains shown)
VH: B3 VH with R38K, V68F, I70F, A72L
VL: B3 VL
notes: Human IgG format
B9: h32716-3-1 IgG (antibody, V domains shown)
VH: B3 VH with R38K, L45F, E46K, V68F, I70F, A72L
VL: B3 VL
notes: Human IgG format
B10: h32716-1-1 IgG (antibody, V domains shown)
VH: B3 VH
VL: B3 VL
notes: Human IgG format

These results are taken from patent publication US20240076392A1 (IGM BIOSCIENCES, published 2024).

Where a chain is given by its changes, count along the chain named. Where only a bound is given, the exact number is not on record here.

One may read the EC50 (read off the curve) as the concentration giving half of the maximal effect. In general, Kd refers to the free concentration of one partner at which half of the binding sites on the other are occupied at equilibrium, for simple one-to-one binding. One may read the koff as the first-order rate constant of dissociation. For orientation: kon means a measure of how fast the partners come together.

One assay concerns the target T1, Human CD123.
T1 construct: It is a different reagent from m11 (Acro, His) and m13 (BPS, Fc); also called recombinant human CD123 protein (Sino Biological 10518-H08H-50); not shown: The tag of the vendor's product
T1 chain: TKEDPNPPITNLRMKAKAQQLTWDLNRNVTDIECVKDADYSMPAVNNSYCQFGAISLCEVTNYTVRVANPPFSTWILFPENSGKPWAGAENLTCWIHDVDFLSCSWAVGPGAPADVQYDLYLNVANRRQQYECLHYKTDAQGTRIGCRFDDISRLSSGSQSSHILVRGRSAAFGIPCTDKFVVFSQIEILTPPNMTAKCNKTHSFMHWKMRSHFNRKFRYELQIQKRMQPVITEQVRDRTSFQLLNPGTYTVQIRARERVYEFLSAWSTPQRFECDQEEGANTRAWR
In words: ELISA, plate coated with 0.2 ug/mL recombinant human CD123 (Sino Biological), detection with HRP anti-human kappa, chemiluminescence. How it is done: 96-well white polystyrene ELISA plates (Pierce 15042) were coated with 100 μL per well of 0.2 μg/mL recombinant human CD123 protein (Sino Biological 10518-H08H-50) or 0.5 μg/ml recombinant human CD3ε protein (Acro Biosystems, CDE-H5256-100) overnight at 4° C. Plates were then washed 5 times with 0.05% PBS-Tween and blocked with 2% BSA-PBS. After blocking, 100 μL of serial dilutions of CD123×CD3 IgM antibodies, standards, and controls were added to the wells and incubated at room temperature for 2 hours. The plates were then washed 10 times and incubated with HRP conjugated mouse anti-human kappa (Southern Biotech, 9230-05. 1:6000 diluted in 2% BSA-PBS) for 30 min. After 10 final washes using 0.05% PBS-Tween, the plates were read out using SuperSignal chemiluminescent substrate (ThermoFisher, 37070). Luminescent data were collected on an EnVision plate reader (Perkin-Elmer) and analyzed with GraphPad Prism using a 4-parameter logistic model.
For orientation: An ELISA detects its analyte on a solid surface through an enzyme-linked reagent.
Turning to B1, the “EC50 (read off the curve)” value is around 0.08 nM.

On to B2, for which the “EC50 (read off the curve)” value was around 0.03 nM.

Take B3: the “EC50 (read off the curve)” value was 0.1 to 0.2 nM.

The next assay has as its target T2, recombinant human CD123 protein (CD123)-His Acrobio #ILA-H52H6 (human, UniProt P26951 19-305).
T2 construct: Bought protein; also called hu IL-3R alpha (CD123)-His; not shown: His tag
T2 sequence (looked up): T1 chain
In words: BLI (Octet), CD123-His on anti-penta-His sensors, IgG in solution, 1:1 global fit. How it is done:
PBST (1×PBS+1% BSA+0.05% Tween-20) buffer was used as Antibody/CD123 dilution and sensor hydration buffer. The experiment followed a five-step sequential assay at 24° C. First, biosensors were hydrated for 10 minutes. Samples and buffer were applied in 384-well plate. After initial baseline for 60 s, sensors were loaded with 7 nM hu IL-3R alpha (CD123)-His Acrobio #ILA-H52H6. The biosensors were dipped into PBST for 20 s to reach baseline, then incubated for 420 s with 2-fold serial diluted anti-CD123 antibodies starting at 10 nM for association, followed by 900 s in PBST for dissociation. Results were analyzed by ForteBio Data Analysis software 9.0 using 1:1 global fit model.
In general terms: BLI is a label-free optical method that tracks binding on a fibre tip over time.
On to B4, for which the Kd stood at 0.71 nM, the koff was determined as 0.00045 s⁻¹ and the kon was determined as 700000 M⁻¹ s⁻¹.

With B5, the dissociation constant Kd came to 0.6 nM, the koff was 0.00046 s⁻¹ and the on-rate (kon) amounted to 770000 M⁻¹ s⁻¹.

As for B6, the Kd was determined as 0.33 nM and the koff is 0.0002 s⁻¹.

As for B7, the Kd was found to be 0.44 nM, the koff came to 0.0003 s⁻¹ and the kon was found to be 710000 M⁻¹ s⁻¹.

As for B8, the Kd is 0.45 nM, the koff amounted to 0.00049 s⁻¹ and the kon was 1.1e+06 M⁻¹ s⁻¹.

On to B9, for which the Kd amounted to 0.25 nM, the koff worked out at 0.00031 s⁻¹ and the on-rate constant (kon) came out at 1.2e+06 M⁻¹ s⁻¹.

Take B10: the Kd is 0.36 nM, the koff was 0.0004 s⁻¹ and the on-rate constant (kon) worked out at 940000 M⁻¹ s⁻¹.

The target of another assay is T3, recombinant human CD123 protein (CD123, Fc-Fusion (IgG1) Avi-Tag, Biotin-Labeled, BPS Bioscience Cat.100068-2) (human, UniProt P26951 19-305, limits assumed, biotin-labeled (Avi-Tag)).
T3 construct: Bought protein; not shown: IgG1 Fc; Avi-Tag
T3 sequence (looked up): T1 chain
In words: BLI (Octet), CD123-Fc on anti-human Fc sensors, IgM in solution.
As for B1, the Kd stood at 0.00443 nM, the koff is 1.69e-05 s⁻¹ and the kon was 3.82e+06 M⁻¹ s⁻¹.

Consider B2, for which the Kd was below 0.001 nM, the koff was below 1e-07 s⁻¹ and the kon is 4.1e+06 M⁻¹ s⁻¹.

Turning to B3, the equilibrium dissociation constant (Kd) was below 0.001 nM, the koff is below 1e-07 s⁻¹ and the kon was 3.9e+06 M⁻¹ s⁻¹.
